In the supplement of paper PMC10065799, “High-throughput profiling of sequence recognition by tyrosine kinases and SH2 domains using bacterial peptide display” (eLife, 2023):

Columns and labels:
Hck = Hck (UniProt P08631); assay: phosphorylation enrichment, bacterial display (enrichment ratio); higher = better substrate or ligand; peptides without Tyr show the background
Fer (mouse) = assay: as above
AncSZ = assay: as above
c-Src = assay: as above
FGFR1 = FGFR1 (UniProt P11362); assay: as above
Fyn = Fyn (UniProt P06241); assay: as above
c-Abl (mouse) = assay: as above
EPHB1 = EPHB1 (UniProt P54762); assay: as above
FGFR3 = FGFR3 (UniProt P22607); assay: as above
MERTK = MERTK (UniProt Q12866); assay: as above
Fes = Fes (UniProt P07332); assay: as above
Jak2 = Jak2 (UniProt O60674); assay: as above
EPHB2 = EPHB2 (UniProt P29323); assay: as above
c-Src SH2 = assay: SH2 binding enrichment of the phosphorylated peptide, bacterial display (enrichment ratio); higher = better substrate or ligand; peptides without Tyr show the background
SHP2-C SH2 = assay: as above
Grb2 SH2 = Grb2 SH2 (UniProt P62993); assay: as above
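Wherever SH2 binding enrichment of the phosphorylated peptide, bacterial display is given: peptide library displayed on the E. coli surface as eCPX fusions, selected cells deep-sequenced, score is each peptide's frequency after selection divided by its frequency in the input.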
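Wherever phosphorylation enrichment, bacterial display is given: 11-residue human phosphosite peptides and single-mutation variants displayed on the E. coli surface, counted by deep sequencing, each peptide's frequency after selection divided by its frequency in the unselected input library; frequency after pTyr selection over input frequency; kinase dosed for 20-30% of maximal phosphorylation in three min.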

Sequence of FGFR3 (P22607 whole entry, looked up): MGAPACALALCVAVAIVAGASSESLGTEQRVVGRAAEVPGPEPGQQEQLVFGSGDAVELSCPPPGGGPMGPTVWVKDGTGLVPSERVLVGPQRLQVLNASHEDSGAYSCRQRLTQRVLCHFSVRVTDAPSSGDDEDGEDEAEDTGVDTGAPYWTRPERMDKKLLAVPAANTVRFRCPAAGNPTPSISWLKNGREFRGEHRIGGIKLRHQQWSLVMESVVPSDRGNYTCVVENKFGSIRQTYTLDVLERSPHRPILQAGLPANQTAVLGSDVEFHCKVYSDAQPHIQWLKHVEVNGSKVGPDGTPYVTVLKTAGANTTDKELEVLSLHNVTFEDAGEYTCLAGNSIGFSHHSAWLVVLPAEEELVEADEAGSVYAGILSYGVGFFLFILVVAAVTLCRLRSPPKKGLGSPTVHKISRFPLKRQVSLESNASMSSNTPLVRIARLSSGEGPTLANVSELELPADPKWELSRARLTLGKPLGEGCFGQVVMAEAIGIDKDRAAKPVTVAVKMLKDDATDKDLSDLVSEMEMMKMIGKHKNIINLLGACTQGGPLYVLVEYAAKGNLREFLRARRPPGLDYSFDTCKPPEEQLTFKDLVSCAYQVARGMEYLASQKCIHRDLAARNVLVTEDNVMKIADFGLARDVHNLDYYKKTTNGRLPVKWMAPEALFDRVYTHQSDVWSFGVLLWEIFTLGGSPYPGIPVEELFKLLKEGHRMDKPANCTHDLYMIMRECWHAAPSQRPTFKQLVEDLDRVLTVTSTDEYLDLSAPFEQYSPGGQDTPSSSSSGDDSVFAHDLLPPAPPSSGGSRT
Sequence of Fyn (P06241 whole entry, looked up): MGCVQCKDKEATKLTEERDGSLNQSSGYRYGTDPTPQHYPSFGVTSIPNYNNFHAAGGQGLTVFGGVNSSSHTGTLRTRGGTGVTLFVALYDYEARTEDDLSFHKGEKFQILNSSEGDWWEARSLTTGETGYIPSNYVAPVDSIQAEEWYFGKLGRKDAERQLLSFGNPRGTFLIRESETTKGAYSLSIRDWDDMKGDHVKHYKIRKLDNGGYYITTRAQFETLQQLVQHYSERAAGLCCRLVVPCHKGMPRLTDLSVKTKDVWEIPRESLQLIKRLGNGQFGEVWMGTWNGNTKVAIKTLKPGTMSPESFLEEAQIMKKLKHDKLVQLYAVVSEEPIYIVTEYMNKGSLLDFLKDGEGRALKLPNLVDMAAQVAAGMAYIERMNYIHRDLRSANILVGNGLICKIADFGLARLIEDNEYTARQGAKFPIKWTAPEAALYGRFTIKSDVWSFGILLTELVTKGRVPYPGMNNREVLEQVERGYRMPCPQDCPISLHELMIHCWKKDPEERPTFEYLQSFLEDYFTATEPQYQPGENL
Sequence of FGFR1 (P11362 whole entry, looked up): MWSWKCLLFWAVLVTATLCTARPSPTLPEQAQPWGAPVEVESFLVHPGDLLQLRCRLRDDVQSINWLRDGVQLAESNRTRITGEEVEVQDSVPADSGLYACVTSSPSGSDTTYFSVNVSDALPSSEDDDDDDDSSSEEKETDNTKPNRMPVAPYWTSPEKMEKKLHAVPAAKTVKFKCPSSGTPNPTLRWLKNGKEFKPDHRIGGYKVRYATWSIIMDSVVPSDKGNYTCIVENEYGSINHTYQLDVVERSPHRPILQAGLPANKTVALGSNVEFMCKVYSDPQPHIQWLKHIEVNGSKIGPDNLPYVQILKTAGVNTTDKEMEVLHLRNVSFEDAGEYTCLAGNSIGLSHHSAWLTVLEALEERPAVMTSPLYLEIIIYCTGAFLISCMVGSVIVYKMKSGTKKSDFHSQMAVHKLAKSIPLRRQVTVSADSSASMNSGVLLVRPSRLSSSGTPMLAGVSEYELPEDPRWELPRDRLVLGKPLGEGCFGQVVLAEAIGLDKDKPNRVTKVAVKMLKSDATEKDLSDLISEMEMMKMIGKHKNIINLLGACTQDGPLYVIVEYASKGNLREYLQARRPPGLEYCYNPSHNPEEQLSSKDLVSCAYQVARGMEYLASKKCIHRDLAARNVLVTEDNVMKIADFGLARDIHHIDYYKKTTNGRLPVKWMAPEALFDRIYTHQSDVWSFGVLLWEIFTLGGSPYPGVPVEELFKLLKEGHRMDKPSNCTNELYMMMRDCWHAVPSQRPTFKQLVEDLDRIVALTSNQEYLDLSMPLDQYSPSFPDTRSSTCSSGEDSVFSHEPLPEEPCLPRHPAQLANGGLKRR
Sequence of EPHB1 (P54762 whole entry, looked up): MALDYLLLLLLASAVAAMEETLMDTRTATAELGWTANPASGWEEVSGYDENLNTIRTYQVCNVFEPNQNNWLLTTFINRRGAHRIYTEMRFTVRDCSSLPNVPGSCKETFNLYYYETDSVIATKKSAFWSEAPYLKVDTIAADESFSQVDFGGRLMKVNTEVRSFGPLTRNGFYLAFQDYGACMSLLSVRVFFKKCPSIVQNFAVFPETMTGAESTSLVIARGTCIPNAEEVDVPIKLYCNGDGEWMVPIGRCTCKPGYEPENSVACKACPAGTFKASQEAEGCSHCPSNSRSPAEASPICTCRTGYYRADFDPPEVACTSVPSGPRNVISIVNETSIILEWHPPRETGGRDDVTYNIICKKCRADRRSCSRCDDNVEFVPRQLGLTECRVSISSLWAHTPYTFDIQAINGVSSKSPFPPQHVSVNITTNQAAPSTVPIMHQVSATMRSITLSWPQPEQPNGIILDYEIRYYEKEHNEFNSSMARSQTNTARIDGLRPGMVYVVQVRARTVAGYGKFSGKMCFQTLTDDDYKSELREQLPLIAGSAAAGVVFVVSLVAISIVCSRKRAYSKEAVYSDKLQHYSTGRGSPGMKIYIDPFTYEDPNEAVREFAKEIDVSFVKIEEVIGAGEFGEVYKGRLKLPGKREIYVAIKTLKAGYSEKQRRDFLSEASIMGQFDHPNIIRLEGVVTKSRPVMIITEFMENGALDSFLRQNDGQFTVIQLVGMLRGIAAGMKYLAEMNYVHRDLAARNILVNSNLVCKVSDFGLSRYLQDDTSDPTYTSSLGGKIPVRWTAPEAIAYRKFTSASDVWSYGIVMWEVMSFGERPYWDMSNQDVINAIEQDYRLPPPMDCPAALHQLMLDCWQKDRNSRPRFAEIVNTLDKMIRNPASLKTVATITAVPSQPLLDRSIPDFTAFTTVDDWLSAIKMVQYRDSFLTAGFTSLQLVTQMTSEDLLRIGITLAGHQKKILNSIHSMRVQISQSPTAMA
Sequence of MERTK (Q12866 whole entry, looked up): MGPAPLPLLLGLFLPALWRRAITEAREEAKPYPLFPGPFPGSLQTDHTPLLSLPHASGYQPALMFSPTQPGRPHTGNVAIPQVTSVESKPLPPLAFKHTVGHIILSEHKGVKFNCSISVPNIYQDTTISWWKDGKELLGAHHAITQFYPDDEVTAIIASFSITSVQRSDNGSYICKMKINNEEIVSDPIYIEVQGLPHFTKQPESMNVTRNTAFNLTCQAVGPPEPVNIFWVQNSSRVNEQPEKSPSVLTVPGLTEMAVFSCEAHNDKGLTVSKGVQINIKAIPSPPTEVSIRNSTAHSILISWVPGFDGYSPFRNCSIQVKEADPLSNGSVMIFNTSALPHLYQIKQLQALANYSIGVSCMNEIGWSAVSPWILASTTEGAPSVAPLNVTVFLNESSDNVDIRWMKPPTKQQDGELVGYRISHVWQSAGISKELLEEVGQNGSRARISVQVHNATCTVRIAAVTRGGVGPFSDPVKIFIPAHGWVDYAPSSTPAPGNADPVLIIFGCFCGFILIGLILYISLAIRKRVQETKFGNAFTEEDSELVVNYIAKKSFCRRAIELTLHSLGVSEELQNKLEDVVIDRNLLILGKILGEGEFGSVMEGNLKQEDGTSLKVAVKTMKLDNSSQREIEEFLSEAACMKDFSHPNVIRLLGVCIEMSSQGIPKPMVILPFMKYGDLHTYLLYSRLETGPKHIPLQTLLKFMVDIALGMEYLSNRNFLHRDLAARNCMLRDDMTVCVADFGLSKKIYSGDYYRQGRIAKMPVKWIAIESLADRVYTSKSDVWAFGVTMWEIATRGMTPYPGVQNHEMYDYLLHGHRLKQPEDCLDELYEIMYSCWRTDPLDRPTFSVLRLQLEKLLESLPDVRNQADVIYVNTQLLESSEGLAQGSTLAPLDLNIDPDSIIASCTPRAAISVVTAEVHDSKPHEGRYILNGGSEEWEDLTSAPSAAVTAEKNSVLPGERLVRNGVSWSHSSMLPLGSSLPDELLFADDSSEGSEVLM
Sequence of Fes (P07332 whole entry, looked up): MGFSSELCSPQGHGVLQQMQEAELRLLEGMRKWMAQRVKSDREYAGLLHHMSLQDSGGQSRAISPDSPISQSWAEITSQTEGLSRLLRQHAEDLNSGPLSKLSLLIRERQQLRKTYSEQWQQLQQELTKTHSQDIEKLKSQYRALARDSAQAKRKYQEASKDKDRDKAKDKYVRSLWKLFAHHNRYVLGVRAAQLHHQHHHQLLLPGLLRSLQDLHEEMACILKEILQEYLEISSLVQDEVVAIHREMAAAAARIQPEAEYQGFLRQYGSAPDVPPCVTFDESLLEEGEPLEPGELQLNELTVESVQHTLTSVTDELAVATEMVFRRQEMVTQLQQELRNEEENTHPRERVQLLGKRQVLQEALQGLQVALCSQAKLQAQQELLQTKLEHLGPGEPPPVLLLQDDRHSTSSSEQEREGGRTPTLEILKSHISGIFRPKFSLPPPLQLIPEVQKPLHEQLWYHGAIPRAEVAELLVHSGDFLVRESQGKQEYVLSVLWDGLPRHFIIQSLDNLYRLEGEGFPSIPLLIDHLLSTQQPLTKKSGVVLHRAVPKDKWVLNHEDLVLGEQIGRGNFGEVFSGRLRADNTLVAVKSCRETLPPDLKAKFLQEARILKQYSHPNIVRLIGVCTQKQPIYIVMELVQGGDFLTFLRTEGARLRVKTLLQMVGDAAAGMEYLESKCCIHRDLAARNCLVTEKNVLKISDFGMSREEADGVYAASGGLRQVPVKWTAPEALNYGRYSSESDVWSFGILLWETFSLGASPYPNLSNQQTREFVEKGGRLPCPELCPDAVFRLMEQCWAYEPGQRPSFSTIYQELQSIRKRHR

SH2 binding enrichment (c-Src SH2) | SH2 binding enrichment (SHP2-C SH2) | SH2 binding enrichment (Grb2 SH2) | Sequence | phosphorylation enrichment (Hck) | phosphorylation enrichment (Fer (mouse)) | phosphorylation enrichment (AncSZ) | phosphorylation enrichment (c-Src) | phosphorylation enrichment (FGFR1) | phosphorylation enrichment (Fyn) | phosphorylation enrichment (c-Abl (mouse)) | phosphorylation enrichment (EPHB1) | phosphorylation enrichment (FGFR3) | phosphorylation enrichment (MERTK) | phosphorylation enrichment (Fes) | phosphorylation enrichment (Jak2) | phosphorylation enrichment (EPHB2)
1.18 | 1.84 | 2.04 | ATDLAYFLVRK [ASL_Y375_YF] | 0.686 | 0.509 | 1.73 | 0.728 | 1.26 | 0.725 | 1.2 | 0.73 | 1.32 | 0.642 | 1.6 | 2.72 | 0.872
0.488 | 0.857 | 0.807 | AVLSLCASGRT [ACTA2_Y145_Y145C] | 0.448 | 0.545 | 0.898 | 0.357 | 0.505 | 0.366 | 0.606 | 0.58 | 0.592 | 0.402 | 0.955 | 0.959 | 0.639
0.406 | 0.654 | 0.744 | CDIPRYIVSQL [MAST2_Y461] | 0.482 | 0.454 | 1.04 | 0.442 | 0.497 | 0.506 | 0.816 | 0.535 | 0.618 | 0.501 | 1.02 | 1.04 | 0.577
0.652 | 0.694 | 0.944 | CFSSEYHFVGG [CTSC_Y345_Y340C_YF] | 1.35 | 0.753 | 2.64 | 1.85 | 10.4 | 0.992 | 1.19 | 1.87 | 7.23 | 2.02 | 1.11 | 1.61 | 1.96
0.582 | 0.785 | 0.878 | CGTPTYLAPEV [CHEK2_Y390] | 0.776 | 0.564 | 2.38 | 0.639 | 1.12 | 0.627 | 7.74 | 1.18 | 1.04 | 0.816 | 1.34 | 1.9 | 1.39
0.567 | 0.599 | 0.816 | CLRIDYERVSQ [DSP_Y1542_R1537C] | 0.631 | 0.674 | 1.23 | 0.517 | 0.574 | 0.524 | 0.96 | 1.48 | 1.04 | 0.475 | 1.57 | 1.38 | 1.03
0.675 | 0.712 | 0.703 | CRVEPYGENFN [APOA4_Y310_R305C] | 0.608 | 0.649 | 1.28 | 0.616 | 0.603 | 0.441 | 1.1 | 0.675 | 0.869 | 0.583 | 1.57 | 1.28 | 0.651
0.544 | 0.605 | 0.752 | DDLEVYLKHLL [SACS_Y3477] | 0.58 | 0.653 | 1.03 | 0.558 | 0.479 | 0.482 | 0.61 | 0.505 | 0.697 | 0.409 | 0.97 | 0.822 | 0.503
0.598 | 0.833 | 0.866 | DDPRTYQKYGY [OAS1_Y362_R361T] | 0.492 | 0.41 | 0.74 | 0.549 | 0.446 | 0.43 | 0.572 | 0.458 | 0.555 | 0.421 | 0.76 | 0.635 | 0.611
1.21 | 0.727 | 1 | DDSSAYCSVDE [BCKDHA_Y345_R346C] | 0.58 | 0.521 | 1.32 | 0.535 | 0.544 | 0.55 | 0.712 | 0.621 | 0.692 | 0.505 | 1 | 0.978 | 0.505
0.517 | 1.27 | 0.94 | DKATEYIQYVR [MAX_Y70_M74V] | 0.552 | 0.43 | 0.983 | 0.493 | 0.506 | 0.535 | 0.582 | 0.519 | 0.507 | 0.425 | 0.976 | 0.763 | 0.582

The remaining lines, values behind:

Sequence | SH2 binding enrichment (c-Src SH2) | SH2 binding enrichment (SHP2-C SH2) | SH2 binding enrichment (Grb2 SH2) | phosphorylation enrichment (Hck) | phosphorylation enrichment (Fer (mouse)) | phosphorylation enrichment (AncSZ) | phosphorylation enrichment (c-Src) | phosphorylation enrichment (FGFR1) | phosphorylation enrichment (Fyn) | phosphorylation enrichment (c-Abl (mouse)) | phosphorylation enrichment (EPHB1) | phosphorylation enrichment (FGFR3) | phosphorylation enrichment (MERTK) | phosphorylation enrichment (Fes) | phosphorylation enrichment (Jak2) | phosphorylation enrichment (EPHB2)
ATGGFYSFGGG [KRT24_Y120_YF] | 0.425 | 0.569 | 0.749 | 1.83 | 2.46 | 0.678 | 1.83 | 0.481 | 3.93 | 0.562 | 0.7 | 0.502 | 7.38 | 0.953 | 0.706 | 0.499
ATKNDYWAMLA [WWOX_Y287_P282A] | 0.497 | 0.752 | 0.677 | 0.453 | 0.452 | 1.17 | 0.418 | 6.01 | 0.384 | 0.881 | 1.72 | 3.97 | 0.499 | 1 | 1.02 | 1.15
CEAVEYLESKQ [BTK_Y511_M509V] | 0.539 | 0.643 | 0.929 | 0.613 | 0.564 | 1.3 | 0.52 | 0.534 | 0.443 | 0.738 | 0.546 | 0.875 | 0.384 | 1.41 | 1.32 | 0.802
CGTPEYRAPEI [PRKACA_Y205_L206R] | 0.52 | 0.735 | 0.767 | 0.549 | 0.582 | 1.17 | 0.432 | 0.603 | 0.517 | 3.88 | 0.687 | 0.825 | 0.467 | 1.35 | 0.984 | 0.605
CLAKMYFSAVD [CP_Y539_YF] | 0.606 | 0.608 | 0.895 | 0.527 | 0.506 | 1.04 | 0.563 | 0.519 | 0.519 | 1.03 | 0.662 | 0.765 | 0.414 | 1.26 | 1.06 | 0.592
CPTIHYNYMCN [TP53_Y234_T230P] | 8.28 | 4.49 | 1.02 | 0.429 | 0.621 | 0.843 | 0.462 | 0.54 | 0.594 | 0.634 | 0.603 | 0.586 | 0.462 | 0.999 | 0.776 | 0.607
CSRRFYQLTKL [AR_Y858] | 0.406 | 0.488 | 0.663 | 0.507 | 0.468 | 0.79 | 0.527 | 0.455 | 0.462 | 0.508 | 0.407 | 0.528 | 0.448 | 0.718 | 0.698 | 0.548
CSRRLYQLTKL [AR_Y858_F857L] | 0.524 | 0.449 | 0.641 | 0.858 | 0.499 | 0.666 | 0.657 | 0.517 | 0.621 | 0.728 | 0.451 | 0.456 | 0.558 | 0.769 | 0.794 | 0.59
CTAIHYNFMCN [TP53_Y234_T231A_YF] | 2.01 | 1.73 | 1.33 | 0.597 | 0.461 | 0.814 | 0.525 | 0.598 | 0.442 | 0.735 | 0.622 | 0.614 | 0.38 | 0.909 | 0.863 | 0.526
CTLSVYRQLHN [LUZP1_Y1036] | 0.464 | 0.608 | 0.655 | 0.456 | 0.536 | 1.1 | 0.412 | 0.513 | 0.466 | 0.771 | 0.622 | 0.823 | 0.435 | 1.29 | 1.07 | 0.631
CTTIHYDYMCN [TP53_Y234_N235D] | 8.99 | 1.48 | 0.983 | 0.635 | 1.17 | 1.31 | 0.675 | 0.687 | 0.657 | 0.708 | 0.644 | 0.631 | 0.591 | 0.994 | 1.03 | 0.723
CTTIHYIFMCN [TP53_Y234_N235I_YF] | 0.858 | 1.1 | 1.19 | 0.331 | 0.436 | 0.946 | 0.324 | 0.416 | 0.418 | 0.695 | 0.511 | 0.657 | 0.327 | 1.05 | 0.918 | 0.554
CTTIHYNFICN [TP53_Y234_M237I_YF] | 2.34 | 2.05 | 2 | 0.454 | 0.672 | 0.895 | 0.595 | 0.554 | 0.464 | 0.787 | 0.554 | 0.775 | 0.439 | 1.23 | 1.25 | 0.59
CTTIHYNFMRN [TP53_Y234_C238R_YF] | 0.773 | 0.896 | 0.949 | 0.577 | 0.571 | 1.03 | 0.449 | 0.567 | 0.568 | 0.767 | 0.605 | 0.993 | 0.489 | 1.07 | 0.889 | 0.626
CTTIHYNYMSN [TP53_Y234_C238S] | 1.65 | 0.873 | 0.934 | 0.434 | 0.664 | 0.793 | 0.399 | 0.499 | 0.396 | 0.501 | 0.503 | 0.629 | 0.502 | 0.844 | 0.756 | 0.594
CTTIHYNYRCN [TP53_Y234_M237R] | 1.36 | 1.39 | 1.5 | 0.497 | 0.455 | 0.797 | 0.522 | 0.502 | 0.498 | 0.726 | 0.594 | 0.713 | 0.465 | 1.03 | 0.832 | 0.54
DAASNYARGHF [TUBA3E_Y103_YF] | 0.458 | 0.844 | 0.688 | 0.47 | 0.403 | 0.503 | 0.394 | 0.41 | 0.398 | 0.537 | 0.502 | 0.526 | 0.465 | 0.584 | 0.604 | 0.514
DAMQTYNGNDE [TSPAN7_Y131] | 0.71 | 0.613 | 0.654 | 0.494 | 0.531 | 1.01 | 0.685 | 0.508 | 0.55 | 0.653 | 0.637 | 0.837 | 0.585 | 1.11 | 1.03 | 0.576
DCAAIYGNEPD [AKR1A1_Y50_E55D] | 0.982 | 0.813 | 1.11 | 1.09 | 0.672 | 1.35 | 1.65 | 0.638 | 1.02 | 0.978 | 0.668 | 0.957 | 0.585 | 1.64 | 1.25 | 0.726
DEEPPDRGPFC [SASH1_Y551_Y551D] | 0.61 | 0.694 | 1.01 | 0.496 | 0.665 | 1.15 | 0.513 | 0.574 | 0.532 | 0.798 | 0.549 | 0.679 | 0.465 | 1.14 | 0.952 | 0.596
DFFDLYGGEKF [PTPN11_Y66_YF] | 0.56 | 0.639 | 0.904 | 3.08 | 0.682 | 0.912 | 2.79 | 0.523 | 2.12 | 0.967 | 0.569 | 0.629 | 0.441 | 1 | 1.06 | 0.525
DGMADCSDPSY [CDC5L_Y459_Y459C] | 0.615 | 0.629 | 1.22 | 0.543 | 0.52 | 1.12 | 0.425 | 0.465 | 0.492 | 0.755 | 0.607 | 0.754 | 0.412 | 1.18 | 1.06 | 0.595
